{"source": "paper PMC3905167", "origin": "cited, not measured here", "assay_in_all_cases": "given as Ka", "key": {"[1]": {"molecular_target": "FcγRIIa (R131) (Homo sapiens) (UniProt P12318)", "sequence (P12318 34-317)": "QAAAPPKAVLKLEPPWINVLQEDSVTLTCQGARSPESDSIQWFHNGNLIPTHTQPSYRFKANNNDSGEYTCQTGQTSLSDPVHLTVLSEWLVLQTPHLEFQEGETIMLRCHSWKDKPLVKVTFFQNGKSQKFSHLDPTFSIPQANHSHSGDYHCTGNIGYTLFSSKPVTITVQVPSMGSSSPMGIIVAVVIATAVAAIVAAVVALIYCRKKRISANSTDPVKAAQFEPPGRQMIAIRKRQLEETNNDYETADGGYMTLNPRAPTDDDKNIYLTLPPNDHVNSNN"}, "FcγRI (Homo sapiens)": {"molecular_target": "FcγRI (Homo sapiens) (UniProt P12314)", "sequence (P12314 16-374)": "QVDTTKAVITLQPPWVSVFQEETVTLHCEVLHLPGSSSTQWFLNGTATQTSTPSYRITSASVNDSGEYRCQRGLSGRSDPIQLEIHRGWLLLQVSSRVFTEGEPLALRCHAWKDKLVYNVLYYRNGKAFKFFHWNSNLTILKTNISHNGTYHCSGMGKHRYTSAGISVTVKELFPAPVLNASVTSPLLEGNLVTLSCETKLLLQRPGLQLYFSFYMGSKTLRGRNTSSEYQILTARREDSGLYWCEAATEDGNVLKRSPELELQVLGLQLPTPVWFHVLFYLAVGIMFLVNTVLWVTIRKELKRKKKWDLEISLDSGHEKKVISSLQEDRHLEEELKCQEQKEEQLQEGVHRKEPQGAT"}, "[2]": {"molecular_target": "FcγRIIIa (F158) (Homo sapiens) (UniProt P08637)", "sequence (P08637 17-254)": "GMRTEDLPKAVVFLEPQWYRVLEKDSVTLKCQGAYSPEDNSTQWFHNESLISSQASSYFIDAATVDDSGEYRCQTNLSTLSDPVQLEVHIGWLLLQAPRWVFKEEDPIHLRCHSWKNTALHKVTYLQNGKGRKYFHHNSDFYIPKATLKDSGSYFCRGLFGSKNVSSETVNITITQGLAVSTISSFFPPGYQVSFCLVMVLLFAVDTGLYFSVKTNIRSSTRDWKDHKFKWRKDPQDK"}, "[3]": {"molecular_target": "FcγRIIa (H131) (Homo sapiens) (UniProt P12318)", "sequence (P12318 34-317)": "as the sequence (P12318 34-317) above"}, "[4]": {"molecular_target": "FcγRIIIa (V158) (Homo sapiens) (UniProt P08637)", "sequence (P08637 17-254)": "as the sequence (P08637 17-254) above"}}, "note": "pKd: −log10 of the molar value.", "data": [{"substance": "IgG4 (from UniProt P01861)", "values": [{"measurement": "pKd", "setting": "[1]", "value": 5.32}, {"measurement": "pKd", "setting": "FcγRI (Homo sapiens)", "value": 7.53}, {"measurement": "pKd", "setting": "[2]", "value": 5.30}, {"measurement": "pKd", "setting": "[3]", "value": 5.23}, {"measurement": "pKd", "setting": "[4]", "value": 5.40}]}, {"substance": "IgG1 (from UniProt P01857)", "values": [{"measurement": "pKd", "setting": "[1]", "value": 6.54}, {"measurement": "pKd", "setting": "FcγRI (Homo sapiens)", "value": 7.81}, {"measurement": "pKd", "setting": "[2]", "value": 6.07}, {"measurement": "pKd", "setting": "[3]", "value": 6.72}, {"measurement": "pKd", "setting": "[4]", "value": 6.30}]}]}
